{
  "source": "patent US9809627B2",
  "about": "“Cyclized transthyretin peptide and methods of use therefor” (Wisconsin Alumni Research Foundation, priority 2014, dated 2017)",
  "key": {"Aβ (1-40) [1]": {"target": "T1, Aβ (1-40) (Homo sapiens, UniProt P05067)", "T1 construct": "Aβ (1-40) was purchased from Anaspec, Inc. (Fremont, Calif.) as lyophilized powder; purchased Anaspec, Inc. (Fremont, Calif.)", "test": "Dynamic light scattering of Aβ aggregate growth", "format": "biochemical", "conditions": "140 μM Aβ", "protocol": "(§1) Aβ (1-40) was purchased from Anaspec, Inc. (Fremont, Calif.) as lyophilized powder. For dynamic light scattering, ThT fluorescence assay, TEM, NTA measurement and filtration/sedimentation assay, Aβ was dissolved in 50% ACN, re-lyophilized, and reconstituted in 8M urea at 12 mg/mL. Aβ stock was then aliquoted, snap-frozen in ethanol with dry ice, and stored at −80° C. For PICUP and proteolytic fragmentation analysis, lyophilized Aβ was dissolved in prechilled hexafluoroisopropanol (HFIP, Acros Organics, Geel, Belgium), aliquoted, dried and stored at −20° C. as previously described (Cho et al., 2014). Aβ sample was prepared right before use by dissolving dried peptides in 50 mM NaOH and diluting into phosphate-buffered saline (PBSA) (10 mM Na2HPO4/NaH2PO4, 150 mM NaCL and 0.02% NaN3 (pH 7.4)) to 30 μM as previously described (Cho et al., 2014).\nAβ stock in 8M urea prepared as stated above was thawed and sonicated for 2 min before being diluted into PBSA. Aβ alone (140 μM) or mixed with peptides (14 μM) was filtered through […] filter directly into a light scattering cuvette and placed into a bath of the index-matching solvent decahydronaphthalene with temperature controlled to 37° C. Light scattering data were collected using a Brookhaven BI-200SM system (Brookhaven Instruments Corp., Holtsville, N.Y.) and an Innova 90C-5 argon laser (Coherent, Santa Clara, Calif.) operating at 488 nm and 150 mW. The average scattering intensity at 90° was measured over 10 hr and data were normalized to the total mass concentration. The z-averaged hydrodynamic diameter was determined from the autocorrelation function using the method of cummulants."}, "Aβ (1-40) [2]": {"target": "T1, Aβ (1-40)", "test": "Nanoparticle tracking (NTA) of Aβ aggregates", "format": "biochemical", "conditions": "28 μM Aβ, 10:1 Aβ:peptide molar ratio", "protocol": "as §1\nNTA measurements were taken with a Nanosight LM10 (Nanosight, Amesbury, U.K.) equipped with a 405 nm laser as previously described (Yang et al., 2013). Aβ alone (28 μM) or with CG3 (2.8 μM) were prepared in PBSA and incubated for 5 hr at 37° C. Three 60 s video were taken for each sample."}, "Aβ (1-40) [3]": {"target": "T1, Aβ (1-40)", "test": "Transmission electron microscopy of Aβ aggregates", "format": "biochemical", "conditions": "48 h at 37° C., 28 μM Aβ, 2.8 μM peptide", "protocol": "as §1\nAβ alone (28 μM) or with peptides (G16 or CG3 at 2.8 μM) were prepared in PBSA and incubated for 48 hr at 37° C. A drop of sample was placed on a pioloform-coated grid and stained with methylamine tungstate stain. Images were taken with a Philips CM120 scanning transmission electron microscope (FEI Corp., Eindhoven, The Netherlands)."}, "Aβ (1-40) [4]": {"target": "T1, Aβ (1-40)", "test": "Thioflavin T (ThT) fluorescence assay of Aβ aggregation", "format": "biochemical", "conditions": "28 μM Aβ, 2.8 μM peptide", "protocol": "as §1\nThT stock solutions were prepared in PBSA and filtered through 0.22 μm filter. The concentration of ThT was measured using an extinction coefficient of 26,620 M^−1 cm^−1 at 416 nm and the stock solution was diluted to 10 μM in PBSA prior to the measurement. Aβ alone (28 μM) and with peptides (2.8 μM) or mTTR (2.8 μM) were prepared in PBSA and incubated for 48 hr at 37° C. After 1, 5, 24 and 48 hr of incubation, 10 μL of each sample was mixed with 130 μL of 10 μM ThT and analyzed. ThT fluorescence emission was measured using a QuantaMaster spectrofluometer (PTI, Birmingham, N.J.), with excitation at 440 nm and emission spectra recorded from 460 to 500 nm. Three serial spectra were averaged for each sample and the background signal of ThT in PBSA was subtracted from the averaged data. Fluorescence intensity at a wavelength of 480 nm was compared."}, "[5]": {"test": "Peptide self-aggregation by light scattering", "format": "physicochemical", "conditions": "80 μM, 37° C., after 1 hr of incubation", "protocol": "To further probe for self-aggregation, G16, LG3, and CG3 were incubated at 80 μM at 37° C. and analyzed by light scattering."}, "[6]": {"test": "Peptide self-association by PICUP cross-linking and gel electrophoresis", "format": "physicochemical", "conditions": "PICUP cross-linking, gel electrophoresis", "protocol": "Peptides were also cross-linked by PICUP and analyzed for self-association. Twenty microliters of peptides at 36 μM in PBSA was incubated for 1 hr at 37° C. and cross-linked. Cross-linked samples were then heated at 95° C. for 5 min and separated on a 10-20% Tris-Tricine gradient gel. Peptides were visualized by silver staining (SilverStain Kit, Pierce, Rockford, Ill.)."}, "[7]": {"tested_on": "primary cortical neuronal cells", "test": "In vitro cellular toxicity of Aβ (1-42), MTS assay", "format": "cell-based, mice", "conditions": "10 μM peptide, 10 μM Aβ", "protocol": "Aβ toxicity was assessed as described in detail previously (Yang et al., 2013; Cho et al., 2014). Briefly, the primary cortical neuronal cells were cultured from embryonic 15.5 day mice and were maintained in neurobasal media till they are matured. Aβ (1-42) (American Peptide, Sunnyvale, Calif.) at 1 mg/mL in PBS was diluted to 10 μM without or with peptides as previously described (Cho et al., 2014). At 6 days in vitro (DIV), the cells were treated with either Aβ alone or Aβ incubated with different doses of mTTR and peptides. Appropriate vehicle and controls were run along with the treatments. At 8 DIV, the neurons were incubated with MTS reagent (Promega) as per manufacturer protocol for 2-3 hrs and absorbance was measured at 490 nm."}, "Aβ (1-40) [8]": {"target": "T1, Aβ (1-40)", "test": "Proteolytic fragmentation assay of Aβ with peptides (Proteinase K)", "format": "binding", "conditions": "3:1 molar excess of peptides, detection by 4G8", "protocol": "as §1\nThe proteolytic fragmentation assay of Aβ with peptides was performed as previously described in detail (Cho et al., 2014). Briefly, Aβ alone (20 μM) or with peptide (60 μM) was incubated for 24 hr at 37° C. Proteinase K (Promega, Madison, Wis.) was added to the samples at a final concentration of 0.5 μg/mL and samples were dotted onto a 0.45 μm nitrocellulose membrane (Pierce) after incubation for 0, 5, 10, 20, 30, 40, 50, 60, 90 and 120 min. Membranes were then reacted with monoclonal antibodies against Aβ (6E10, Covance, against Aβ (3-8) and 4G8 against Aβ (18-22)) and visualized."}},
  "note": "Entries after “also recorded” stand apart in the source; their conditions may differ. Where no end group is shown, it is not given here. [ ]: non-standard residue; d: D form.",
  "data": [
    {"substance": "SKVVT^DPPRYTIAALLSPYSYSQ [CG3] (chain 1 SKVVT[dP]PRYTIAALLSPYSYSQ; chain 2 SKVVT[dP]PRYTIAALLSPYSYSQ; also: head-to-tail to a chain's N/C-terminus) [cyclic 22-mer of TTR residues 104-123 grafted onto DPro-Pro template]", "values": [
      {"measurement": "effect on Aβ aggregation (hydrodynamic diameter, total scattered intensity)", "setting": "Aβ (1-40) [1]; 14 μM peptide", "result": "increased the size of aggregates of Aβ"},
      {"measurement": "intensity of scattered light of Aβ-peptide mixture", "setting": "Aβ (1-40) [1]; 14 μM peptide", "result": "enhanced the intensity of scattered light similarly"},
      {"measurement": "mean hydrodynamic size of Aβ-peptide mixture", "setting": "Aβ (1-40) [1]; after 5 hr, 10:1 molar excess of Aβ, 37° C.", "result": 1000, "unit": "nm"},
      {"measurement": "size of particles detected", "setting": "Aβ (1-40) [2]", "result": "very large (microns)"},
      {"measurement": "morphology of Aβ aggregates by TEM", "setting": "Aβ (1-40) [3]", "result": "strikingly lower density of aggregates"},
      {"measurement": "ThT fluorescence intensity of Aβ with peptide", "setting": "Aβ (1-40) [4]; after 5 hr", "result": "remained low"},
      {"measurement": "ThT fluorescence intensity of Aβ with peptide", "setting": "Aβ (1-40) [4]; after 24 hr", "result": "fluorescence still remained low"},
      {"measurement": "light scattering of peptide alone", "setting": "[5]", "result": "scattered light above background"},
      {"measurement": "scattering intensity relative to G16", "setting": "[5]", "result": "about 5 times"},
      {"measurement": "self-association by PICUP", "setting": "[6]", "result": "a fraction of CG3 forms a SDS-stable dimer"},
      {"measurement": "protection against Aβ toxicity", "setting": "[7]", "result": "significant protection"},
      {"measurement": "effect on Aβ degradation by protease", "setting": "Aβ (1-40) [8]", "result": "Aβ degradation was delayed; also recorded: most effective in inhibiting degradation"}
    ]}
  ]
}
